Test results reported in US10538591B2, “Anti-fibulin-3 antibodies and uses thereof” (THE BRIGHAM AND WOMEN'S HOSPITAL, INC., priority 2014, dated 2020).
“And” between values parts separate entries of the source, which are not always exact repeats. Equal values may be shown once.

What was measured:
purified human fibulin-3 = biological target: T1, purified human fibulin-3 (Homo sapiens, UniProt Q12805); experiment: Western blot and dot-blot detection of fibulin-3; type: binding
T1 construct: purchased ORIGENE
T1 sequence (Q12805 18-493): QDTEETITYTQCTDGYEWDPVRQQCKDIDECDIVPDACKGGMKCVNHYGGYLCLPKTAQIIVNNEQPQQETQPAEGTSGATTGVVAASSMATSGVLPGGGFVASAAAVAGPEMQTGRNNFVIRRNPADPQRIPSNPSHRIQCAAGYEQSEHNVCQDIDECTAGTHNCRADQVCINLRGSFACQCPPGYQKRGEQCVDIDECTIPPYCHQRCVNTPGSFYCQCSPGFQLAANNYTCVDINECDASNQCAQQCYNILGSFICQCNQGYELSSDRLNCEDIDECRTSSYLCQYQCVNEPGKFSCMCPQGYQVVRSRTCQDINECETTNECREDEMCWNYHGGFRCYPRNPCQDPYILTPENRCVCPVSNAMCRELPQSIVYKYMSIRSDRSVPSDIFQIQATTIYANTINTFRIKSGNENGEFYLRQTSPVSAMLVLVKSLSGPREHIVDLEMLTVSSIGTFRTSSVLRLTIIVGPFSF
Method: CNSI glioma cells were transfected with fibulin-3 cDNA (fib3-OE cells) or a control plasmid (control cells) and cultured for 24 h in serum-free conditions. Conditioned medium was collected and probed by Western blotting with anti-Fib3/911 (911), anti-Fib3/912 (912), or their respective preimmune sera (antibodies and sera were used at 1/5000 dilution).
Two rabbit polyclonal antibodies were commissioned against the 23-amino acid peptide sequence of fibulin-3 involved in Notch activation. The peptide was minimally modified to facilitate the formation of a disulfide bridge necessary to form a conformational, tri-dimensional epitope (FIG. 4). Antibodies against fibulin-3 (“anti-Fib3/911” and “anti-Fib3/912”) were purified by affinity chromatography, aliquoted, and prepared in phosphate-buffered saline (PBS) solution for all subsequent tests.
Purified human fibulin-3 (200 ng/lane, ORIGENE) was subjected to SDS-PAGE in reducing and non-reducing conditions and probed with affinity-purified mAb428.3C11 (0.4 to 20 μg/ml, diluted in PBS from a 2 mg/ml stock).
Concentrated, serum-free culture medium from HEK293 cells (1 mg/ml total protein) was probed with anti-human IgG secondary antibody (HRP conjugate) to detect the chains of antibody in reducing and non-reducing conditions. C) Concentrated medium from HEK293 cells (1 mg/ml total protein) was directly used to probe purified human fibulin-3 (resolved by SDS-PAGE in non-reducing conditions).

[1] = Acute toxicity, single IV injection dose-escalation; type: in vivo, athymic mice; set-up: Endpoint weight / Endpoint weight Average: unit not given here; Pre-inject weight / Pre-inject weight Average: unit: g; settings: for Endpoint weight Average / Pre-inject weight Average: group average; for Endpoint weight / Pre-inject weight: individual mouse
Method: Table 2 summarizes the results of acute toxicity assays for mAb428.2 injected intravenously (IV) into mice. A dose-escalation study was performed with athymic mice that received a single IV injection of mAb428.2 (purified in low-endotoxin conditions). Doses ranged from 0.1 to 30 mg/kg and mice were observed (and weighed) for periods ranging from 15 minutes to 14 days after injection. Mice were perfused with 4% paraformaldehyde and several organs were recovered, processed for histochemistry and analyzed by a specialist in rodent histopathology. Note that recovered organs and tissues for FFPE+H&E processing were: cerebrum, cerebellum, eyes, liver, kidney, skin, forepaws (to assess connective tissue). This study was performed independently at the Beth Israel Deaconess Medical Center Preclinical Murine Pharmacogenomics Core and tissues were evaluated at the Dana-Farber/Harvard Cancer Center Rodent Histopathology Core.

fibulin-5 = biological target: T2, fibulin-5 (Homo sapiens, UniProt Q9UBX5); experiment: Cross-reactivity against homologous fibulin-5; type: binding
T2 sequence (Q9UBX5 24-448): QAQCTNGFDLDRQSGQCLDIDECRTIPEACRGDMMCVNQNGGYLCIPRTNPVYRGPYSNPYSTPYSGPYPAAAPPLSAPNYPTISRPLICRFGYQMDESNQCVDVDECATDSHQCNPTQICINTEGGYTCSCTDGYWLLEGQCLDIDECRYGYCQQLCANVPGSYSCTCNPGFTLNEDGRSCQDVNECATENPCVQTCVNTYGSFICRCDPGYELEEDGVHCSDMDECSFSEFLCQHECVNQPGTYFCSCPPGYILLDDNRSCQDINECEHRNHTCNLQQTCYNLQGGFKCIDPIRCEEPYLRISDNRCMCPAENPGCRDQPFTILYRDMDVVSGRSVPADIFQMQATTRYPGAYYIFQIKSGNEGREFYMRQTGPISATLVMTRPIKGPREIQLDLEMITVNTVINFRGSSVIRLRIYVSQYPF

[2] = 0.1 mg/kg IV, 15 min after injection
[3] = 0.1 mg/kg IV, 24 h after injection
[4] = 0.1 mg/kg IV, 4 days after injection
[5] = 0.1 mg/kg IV, 14 days after injection
[6] = 1 mg/kg IV, 15 min after injection
[7] = 1 mg/kg IV, 24 h after injection
[8] = 1 mg/kg IV, 4 days after injection
[9] = 1 mg/kg IV, 14 days after injection
[10] = 10 mg/kg IV, 15 min after injection
[11] = 10 mg/kg IV, 24 h after injection
[12] = 10 mg/kg IV, 4 days after injection
[13] = 10 mg/kg IV, 14 days after injection
[14] = 30 mg/kg IV, 24 h after injection
[15] = 30 mg/kg IV, 4 days after injection
[16] = 30 mg/kg IV, 14 days after injection
[17] = single IV injection 0.1 to 30 mg/kg, 15 minutes to 14 days

B1: mAb428.2: mouse monoclonal IgG1 kappa antibody against human fibulin-3 peptide SEQ ID NO:2; VH SEQ ID NO: 3, VL SEQ ID NO: 4 (antibody, V domains shown)
VH: QIQLVQSGPELKKPGETVKISCKASGYSFTTYGMSWVKQAPGKGLKWMGWINTYSGVPTYADDFKGRFAFFLETSASTAYLQINNLKNEDTATYFCARWVDYWGQGTTLTVSS
VL: DIKMTQSPSSMYASLGERVTITCKASQDIKSYLSWHQQKPWKSPKTLIYYATSLADGVPSRFSGSGSGQDYSLTISSLESDDTATYYCLQHGKSPYTFGGGTKLEIK
- detection of fibulin-3 by Western blotting (purified human fibulin-3; SDS-PAGE, reducing and/or non-reducing conditions): high sensitivity of the antibody towards fibulin-3
- detection of native fibulin-3 by dot-blotting (purified human fibulin-3; non-reduced fibulin-3 on nitrocellulose, scFv428.2 medium 1 mg/ml, mAb428.2 1 μg/ml): able to detect native fibulin-3 by dot-blotting
- Endpoint weight Average [1, 2]: 24.27
- Endpoint weight [1, 2]: 24.80 and 25.60 and 22.40
- Endpoint weight Average [1, 3]: 25.27
- Endpoint weight [1, 3]: 25.40 and 26.50 and 23.90
- Endpoint weight Average [1, 4]: 24.53
- Endpoint weight [1, 4]: 25.20 and 24.00 and 24.40
- Endpoint weight Average [1, 5]: 23.93
- Endpoint weight [1, 5]: 25.20 and 24.90 and 21.70
- Pre-inject weight Average ([1]; 0.1 mg/kg IV, endpoint 15 min): 23.95
- Pre-inject weight ([1]; 0.1 mg/kg IV, endpoint 15 min, measured the day before injection): 21.60 and 26.30 and 19.7 (*)
- Pre-inject weight Average ([1]; 0.1 mg/kg IV, endpoint 24 h): 24.93
- Pre-inject weight ([1]; 0.1 mg/kg IV, endpoint 24 h): 25.10 and 26.30 and 23.40
- Pre-inject weight Average ([1]; 0.1 mg/kg IV, endpoint 4 days): 24.93
- Pre-inject weight ([1]; 0.1 mg/kg IV, endpoint 4 days): 25.10 and 24.80 and 24.90
- Pre-inject weight Average ([1]; 0.1 mg/kg IV, endpoint 14 days): 22.40
- Pre-inject weight ([1]; 0.1 mg/kg IV, endpoint 14 days): 24.10 and 24.70 and 18.40
- Endpoint weight Average [1, 6]: 24.40
- Endpoint weight [1, 6]: 25.20 and 24.00 (2×)
- Endpoint weight Average [1, 7]: 26.30
- Endpoint weight [1, 7]: 25.80 and 26.30 and 26.80
- Endpoint weight Average [1, 8]: 23.93
- Endpoint weight [1, 8]: 25.00 and 22.80 and 24.00
- Endpoint weight Average [1, 9]: 24.37
- Endpoint weight [1, 9]: 24.60 and 24.00 and 24.50
- Pre-inject weight Average ([1]; 1 mg/kg IV, endpoint 15 min): 24.77
- Pre-inject weight ([1]; 1 mg/kg IV, endpoint 15 min, measured the day before injection): 25.30 and 24.60 and 24.40
- Pre-inject weight Average ([1]; 1 mg/kg IV, endpoint 24 h): 26.13
- Pre-inject weight ([1]; 1 mg/kg IV, endpoint 24 h): 25.80 and 25.90 and 26.70
- Pre-inject weight Average ([1]; 1 mg/kg IV, endpoint 4 days): 24.23
- Pre-inject weight ([1]; 1 mg/kg IV, endpoint 4 days): 25.30 and 22.80 and 24.60
- Pre-inject weight Average ([1]; 1 mg/kg IV, endpoint 14 days): 24.30
- Pre-inject weight ([1]; 1 mg/kg IV, endpoint 14 days): 24.60 and 23.80 and 24.50
- Endpoint weight Average [1, 10]: 23.60
- Endpoint weight [1, 10]: 23.50 and 22.90 and 24.40
- Endpoint weight Average [1, 11]: 26.47
- Endpoint weight [1, 11]: 26.30 and 25.60 and 27.50
- Endpoint weight Average [1, 12]: 24.00
- Endpoint weight [1, 12]: 24.70 and 23.60 and 23.70
- Endpoint weight Average [1, 13]: 25.30
- Endpoint weight [1, 13]: 25.10 and 24.80 and 26.00
- Pre-inject weight Average ([1]; 10 mg/kg IV, endpoint 15 min): 23.60
- Pre-inject weight ([1]; 10 mg/kg IV, endpoint 15 min, measured the day before injection): 23.60 and 23.20 and 24.00
- Pre-inject weight Average ([1]; 10 mg/kg IV, endpoint 24 h): 26.00
- Pre-inject weight ([1]; 10 mg/kg IV, endpoint 24 h): 26.20 and 25.00 and 26.80
- Pre-inject weight Average ([1]; 10 mg/kg IV, endpoint 4 days): 24.03
- Pre-inject weight ([1]; 10 mg/kg IV, endpoint 4 days): 24.70 and 24.00 and 23.40
- Pre-inject weight Average ([1]; 10 mg/kg IV, endpoint 14 days): 24.90
- Pre-inject weight ([1]; 10 mg/kg IV, endpoint 14 days): 24.60 and 24.40 and 25.70
- Endpoint weight Average [1, 14]: 26.40
- Endpoint weight [1, 14]: 27.40 and 26.30 and 25.50
- Endpoint weight Average [1, 15]: 24.70
- Endpoint weight [1, 15]: 25.20 and 26.30 and 22.60
- Endpoint weight Average [1, 16]: 23.70
- Endpoint weight [1, 16]: 25.50 and 23.70 and 21.90
- Pre-inject weight Average ([1]; 30 mg/kg IV, endpoint 24 h): 26.20
- Pre-inject weight ([1]; 30 mg/kg IV, endpoint 24 h): 27.40 and 26.10 and 25.10
- Pre-inject weight Average ([1]; 30 mg/kg IV, endpoint 4 days): 23.73
- Pre-inject weight ([1]; 30 mg/kg IV, endpoint 4 days): 24.00 and 25.30 and 21.90
- Pre-inject weight Average ([1]; 30 mg/kg IV, endpoint 14 days): 22.90
- Pre-inject weight ([1]; 30 mg/kg IV, endpoint 14 days): 24.20 and 23.20 and 21.30
- maximum tolerated dose before causing toxicity (MTD) ([1]; single IV injection): > 30 mg/kg
- histopathology in tissues stained by H&E ([1]; single IV injection 0.1 to 30 mg/kg): no evidence of histopathology
- adverse effects [1, 17]: no adverse effects after injection
- weight loss [1, 17]: no weight loss
- cross-reactivity against fibulin-5 (fibulin-5): no cross-reactivity
